{"source": "patent US20210087238A1", "about": "“CELL PENETRATING PEPTIDES AND RELATED COMPOSITIONS AND METHODS” (Phylogica Limited, priority 2017, published 2021)", "biological_target": "MDM2 (UniProt Q00987)", "sequence (Q00987 whole entry)": "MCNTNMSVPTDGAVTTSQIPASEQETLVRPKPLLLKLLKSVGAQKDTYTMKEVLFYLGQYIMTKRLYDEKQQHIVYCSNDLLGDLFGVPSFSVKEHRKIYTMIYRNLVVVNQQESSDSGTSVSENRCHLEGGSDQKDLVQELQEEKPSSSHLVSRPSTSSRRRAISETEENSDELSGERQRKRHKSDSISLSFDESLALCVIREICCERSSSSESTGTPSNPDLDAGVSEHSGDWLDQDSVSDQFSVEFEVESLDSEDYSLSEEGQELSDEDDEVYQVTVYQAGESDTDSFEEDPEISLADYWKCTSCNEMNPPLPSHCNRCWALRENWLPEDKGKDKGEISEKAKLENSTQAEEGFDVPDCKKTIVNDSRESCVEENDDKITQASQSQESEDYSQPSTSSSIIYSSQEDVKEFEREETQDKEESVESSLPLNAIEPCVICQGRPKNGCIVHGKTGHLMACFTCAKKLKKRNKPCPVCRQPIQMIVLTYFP", "assay": "cell-based or functional assay", "data": [{"substance": "TAT_^DPMIα (peptide)", "values": [{"measurement": "IC50, viability of T47D cells after 48 h (resazurin reduction)", "result": 36.6, "unit": "µM"}]}]}
